Earlier results in article PMC3740200 (Dalton transactions (Cambridge, England : 2003), 2012).
Read-outs that look alike come from different tables or passages of the source.

Columns and labels:
[1] = ref [16]
[2] = ref [1]; for turnover number: 100 mM phosphate buffer pH 7, 25 °C
[3] = 4 °C, ref [16]
[4] = ref [2]

B1: WT DaCld: wild-type chlorite dismutase from Dechloromonas aromatica, heme-binding pentameric enzyme (protein, UniProt Q47CX0 32-282, looked up)
Chlorite dismutase: QQAMQPMQSMKIERGTILTQPGVFGVFTMFKLRPDWNKVPVAERKGAAEEVKKLIEKHKDNVLVDLYLTRGLETNSDFFFRINAYDLAKAQTFMREFRSTTVGKNADVFETLVGVTKPLNYISKDKSPGLNAGLSSATYSGPAPRYVIVIPVKKNAEWWNMSPEERLKEMEVHTTPTLAYLVNVKRKLYHSTGLDDTDFITYFETDDLTAFNNLMLSLAQVKENKFHVRWGSPTTLGTIHSPEDVIKALAD
- pKa of alkaline transition (5cHS to 6cLS) [1]: 8.9
- turnover number [2]: 1.7×10^4 ClO2^− ions/heme
- turnover number ([2]; listed as WT): 17000 ClO2^− ions/heme
- turnovers before irreversibly inactivating [2]: ~ 20,000 turnovers
- kcat ([3]; acidic form): 120 ± 5 × 10^2 s^-1
- kcat ([3]; alkaline form): 460 s⁻¹
- first order kobs of second step (PAA-independent) ([4]; pH 6.0): 0.3 s⁻¹
- second order rate constant k, formation of Compound I with PAA ([4]; pH 6): 190000 M⁻¹ s⁻¹
- second order rate constant k, reaction with PAA ([4]; pH 8): 1.3e+06 M⁻¹ s⁻¹
